Values quoted from earlier work, collected in publication PMC12865133, “Macrocyclic Molecular Glues for the 14‐3‐3/ChREBP Interaction: Affinity and Cooperativity in an Inverse Relationship” (Angewandte Chemie (International Ed. in English), 2025).

Target: ChREBP (Homo sapiens) (UniProt Q9NP71)
Details: cited from earlier work

Sequence of 14-3-3 (P31946 2-246): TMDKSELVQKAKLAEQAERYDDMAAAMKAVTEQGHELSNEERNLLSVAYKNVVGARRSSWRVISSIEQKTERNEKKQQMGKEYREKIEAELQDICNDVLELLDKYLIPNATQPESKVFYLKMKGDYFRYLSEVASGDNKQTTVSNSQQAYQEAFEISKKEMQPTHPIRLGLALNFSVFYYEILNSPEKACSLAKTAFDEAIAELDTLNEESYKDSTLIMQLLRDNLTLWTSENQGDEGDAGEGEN
Sequence of ChREBP (Homo sapiens) (Q9NP71 whole entry): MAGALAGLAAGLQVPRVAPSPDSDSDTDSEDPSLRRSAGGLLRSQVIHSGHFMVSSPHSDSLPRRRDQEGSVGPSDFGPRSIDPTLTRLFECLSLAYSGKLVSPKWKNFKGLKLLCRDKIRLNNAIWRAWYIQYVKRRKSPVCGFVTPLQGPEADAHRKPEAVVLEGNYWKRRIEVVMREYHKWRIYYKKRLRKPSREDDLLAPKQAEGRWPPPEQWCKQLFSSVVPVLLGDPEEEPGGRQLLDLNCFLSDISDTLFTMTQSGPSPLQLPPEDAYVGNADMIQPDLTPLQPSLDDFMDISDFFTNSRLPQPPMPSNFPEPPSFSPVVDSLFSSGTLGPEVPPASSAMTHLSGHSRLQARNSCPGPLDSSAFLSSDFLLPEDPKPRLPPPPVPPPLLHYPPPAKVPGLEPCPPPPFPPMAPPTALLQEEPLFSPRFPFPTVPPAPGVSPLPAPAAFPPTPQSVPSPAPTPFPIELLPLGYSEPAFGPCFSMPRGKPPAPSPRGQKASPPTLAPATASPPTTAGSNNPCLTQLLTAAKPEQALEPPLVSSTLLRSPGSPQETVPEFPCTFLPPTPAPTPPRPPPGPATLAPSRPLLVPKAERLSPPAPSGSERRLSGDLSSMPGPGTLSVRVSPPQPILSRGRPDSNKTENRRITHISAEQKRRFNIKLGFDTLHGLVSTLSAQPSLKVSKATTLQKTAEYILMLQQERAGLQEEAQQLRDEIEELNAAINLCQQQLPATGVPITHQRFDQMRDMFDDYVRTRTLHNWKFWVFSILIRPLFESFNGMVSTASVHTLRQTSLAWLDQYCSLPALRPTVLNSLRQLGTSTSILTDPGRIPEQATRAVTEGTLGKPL

## 14-3-3 (from UniProt P31946)
  Kd: 1500 nM
